Source: patent US20100172907A1 (Hoffmann-La Roche, published 2010)
Where a chain is given by its changes, count along the chain named. Groups on a side chain read outwards from the residue. No end group written: not given here. NSMP = not defined here

T1: BSA-conjugated Aβ heptapeptide FFAEDVC (C-terminal Cys coupled to NSMP-activated BSA)
T1 construct: also called Peptide 19-24
T1 peptide: FFAEDVC

T2: BSA-conjugated Aβ heptapeptide VFFAEDC (C-terminal Cys coupled to NSMP-activated BSA)
T2 construct: also called Peptide 18-23
T2 peptide: VFFAEDC

T3: BSA-conjugated Aβ heptapeptide LVFFAEC (reading uncertain; also: BSA conjugate)
T3 construct: also called Peptide 17-22
T3 peptide: LVFFAEC([NSMP-BSA])

T4: BSA-conjugated Aβ heptapeptide AEFRHDC (C-terminal Cys coupled to NSMP-activated BSA)
T4 construct: also called Peptide 2-7
T4 peptide: AEFRHDC

B1: MS-Roche #3.4.H1 Fab (Fab, V domains shown)
VH: QVQLVESGGGLVQPGGSLRLSCAASGFTFSSYAMSWVRQAPGKGLEWVSAISETSIRKYYADSVKGRFTISRDNSKNTLYLQMNSLRAEDTAVYYCARLTHYARYYRYFDVWGQGTLVTVSS
VL: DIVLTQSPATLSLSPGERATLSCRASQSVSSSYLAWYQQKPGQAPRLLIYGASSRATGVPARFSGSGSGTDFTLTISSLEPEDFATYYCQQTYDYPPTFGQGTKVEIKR
B2: MS-Roche #3.4.H3 Fab (Fab, V domains shown)
VH: B1 VH with A50V, E53Q, S55G, I56R, R57K, K58I
VL: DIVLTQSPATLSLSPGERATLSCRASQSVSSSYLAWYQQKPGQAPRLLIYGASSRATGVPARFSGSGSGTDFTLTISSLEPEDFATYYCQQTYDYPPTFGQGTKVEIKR
B3: MS-Roche #3.4.H5 Fab (Fab, V domains shown)
VH: B1 VH with A50V, E53Q, T54V, S55G, I56A, R57H, K58I
VL: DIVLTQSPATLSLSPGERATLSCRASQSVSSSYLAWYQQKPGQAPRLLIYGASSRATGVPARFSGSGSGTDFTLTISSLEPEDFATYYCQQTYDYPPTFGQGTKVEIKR
B4: MS-Roche #3.4.L11 Fab (Fab, V domains shown)
VH: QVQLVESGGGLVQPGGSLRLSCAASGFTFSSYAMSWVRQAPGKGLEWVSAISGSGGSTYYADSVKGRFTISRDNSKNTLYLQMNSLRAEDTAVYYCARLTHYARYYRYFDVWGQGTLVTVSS
VL: DIVLTQSPATLSLSPGERATLSCRASQLVGRAYLAWYQQKPGQAPRLLIYGASSRATGVPARFSGSGSGTDFTLTISSLEPEDFATYYCQQTYDYPPTFGQGTKVEIKR
B5: MS-Roche #3.6.H1 Fab (Fab, V domains shown)
VH: B1 VH with A50V, T54S, S55G, I56Q, R57Y
VL: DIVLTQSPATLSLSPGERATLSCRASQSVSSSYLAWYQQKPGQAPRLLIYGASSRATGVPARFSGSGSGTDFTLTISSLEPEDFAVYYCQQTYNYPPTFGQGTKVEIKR
B6: MS-Roche #3.6.H2 Fab (Fab, V domains shown)
VH: B1 VH with A50V, T54R, S55G, R57N, K58T
VL: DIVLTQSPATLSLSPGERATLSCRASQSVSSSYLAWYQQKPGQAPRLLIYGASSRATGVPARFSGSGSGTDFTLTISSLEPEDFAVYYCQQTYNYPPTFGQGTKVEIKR
B7: MS-Roche #3.6.H6 Fab (Fab, V domains shown)
VH: B1 VH with T54H, S55G, I56T, R57N, K58I
VL: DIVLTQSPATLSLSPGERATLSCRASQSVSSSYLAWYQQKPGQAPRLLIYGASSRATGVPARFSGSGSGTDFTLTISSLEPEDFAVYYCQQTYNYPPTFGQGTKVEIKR
B8: MS-Roche #8.1.H1 Fab (Fab, V domains shown)
VH: QVQLVESGGGLVQPGGSLRLSCAASGFTFSSYAMSWVRQAPGKGLEWVSAISRSGSNIYYADSVKGRFTISRDNSKNTLYLQMNSLRAEDTAVYYCARLLSRGYNGYYHKFDVWGQGTLVTVSS
VL: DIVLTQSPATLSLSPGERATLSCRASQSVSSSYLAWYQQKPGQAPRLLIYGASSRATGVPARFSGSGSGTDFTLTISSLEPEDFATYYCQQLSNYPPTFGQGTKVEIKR
B9: MS-Roche #8.2.L1 Fab (Fab, V domains shown)
VH: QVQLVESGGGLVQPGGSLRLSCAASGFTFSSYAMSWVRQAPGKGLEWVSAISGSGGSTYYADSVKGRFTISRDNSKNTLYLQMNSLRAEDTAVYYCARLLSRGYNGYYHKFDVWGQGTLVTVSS
VL: B4 VL with L28R, G30S, R31G, A32R, T92L, Y93S, D94S
B10: MS-Roche #7.12 Fab (Fab, V domains shown)
VH: QVQLVESGGGLVQPGGSLRLSCAASGFTFSSYGMSWVRQAPGKGLEWVSNISGSGSSTYYADSVKGRFTISRDNSKNTLYLQMNSLRAEDTAVYYCARGKGNTHKPYGYVRYFDVWGQGTLVTVSS
VL: DIVLTQSPATLSLSPGERATLSCRASQYVSSPYLAWYQQKPGQAPRLLISGSSNRATGVPARFSGSGSGTDFTLTISSLEPEDFAVYYCLQLYNIPNTFGQGTKVEIKR

Biological target: T1, BSA-conjugated Aβ heptapeptide FFAEDVC
Test: ELISA
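For OD ratio 18-23/BSA in this document: ELISA of antibody at 10 or 2 µg/ml binding plate-coated BSA–peptide conjugates, detected with HRP anti-human Ig and TMB colour, mock-treated BSA without peptide as negative control.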
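For OD ratio 19-24/BSA in this document: ELISA of antibody at 10 or 2 µg/ml binding plate-coated BSA–peptide conjugates, detected with HRP anti-human Ig and TMB colour, mock-treated BSA without peptide as negative control.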
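For Peptide-ratio 18-23/2-7 in this document: ELISA of antibody at 10 or 2 µg/ml binding plate-coated BSA–peptide conjugates, detected with HRP anti-human Ig and TMB colour, mock-treated BSA without peptide as negative control.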
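For Peptide-ratio 19-24/2-7 in this document: ELISA of antibody at 10 or 2 µg/ml binding plate-coated BSA–peptide conjugates, detected with HRP anti-human Ig and TMB colour, mock-treated BSA without peptide as negative control.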

Going from B1 to B2, the “OD ratio 19-24/BSA” value rises from 2 to 11.

First: B3
Second: B4
The “OD ratio 19-24/BSA” value of the first is lower: 4 for the first, 5 for the second.

Going from B5 to B6, the “OD ratio 19-24/BSA” value falls from 5 to 3.

First: B7
Second: B8
The “OD ratio 19-24/BSA” value of the first is lower: 7 for the first, 25 for the second.

Going from B9 to B10, the “OD ratio 19-24/BSA” value falls from 31 to 7.

Compared with B1, B2 is higher in “Peptide-ratio 19-24/2-7” value: 0.07 for the first, 0.5 for the second.

Compared with B3, B4 is higher in “Peptide-ratio 19-24/2-7” value: 0.14 for the first, 0.16 for the second.

Going from B5 to B6, the “Peptide-ratio 19-24/2-7” value falls from 0.22 to 0.16.

Compared with B7, B8 is higher in “Peptide-ratio 19-24/2-7” value: 0.28 for the first, 0.86 for the second.

First: B9
Second: B10
The “Peptide-ratio 19-24/2-7” value of the first is higher: 1.22 for the first, 0.18 for the second.

Biological target: T2, BSA-conjugated Aβ heptapeptide VFFAEDC
Test: ELISA

Going from B1 to B2, the “OD ratio 18-23/BSA” value rises from 8 to 17.

Going from B3 to B4, the “OD ratio 18-23/BSA” value rises from 13 to 20.

Going from B5 to B6, the “OD ratio 18-23/BSA” value falls from 13 to 8.

Compared with B7, B8 is higher in “OD ratio 18-23/BSA” value: 4 for the first, 25 for the second.

First: B9
Second: B10
The “OD ratio 18-23/BSA” value of the first is higher: 32 for the first, 8 for the second.

Going from B1 to B2, the “Peptide-ratio 18-23/2-7” value rises from 0.3 to 0.77.

Going from B3 to B4, the “Peptide-ratio 18-23/2-7” value rises from 0.46 to 0.65.

Going from B5 to B6, the “Peptide-ratio 18-23/2-7” value falls from 0.57 to 0.42.

Going from B7 to B8, the “Peptide-ratio 18-23/2-7” value rises from 0.16 to 0.88.

Compared with B9, B10 is lower in “Peptide-ratio 18-23/2-7” value: 1.26 for the first, 0.21 for the second.

Biological target: T3, BSA-conjugated Aβ heptapeptide LVFFAEC
Test: ELISA

First: B1
Second: B2
The “OD ratio 17-22/BSA” value of the first is lower: 2 for the first, 9 for the second.

Compared with B3, B4 is higher in “OD ratio 17-22/BSA” value: 5 for the first, 6 for the second.

Going from B5 to B6, the “OD ratio 17-22/BSA” value falls from 3 to 2.

Going from B7 to B8, the “OD ratio 17-22/BSA” value rises from 1 to 22.

Compared with B9, B10 is lower in “OD ratio 17-22/BSA” value: 15 for the first, 6 for the second.

Going from B1 to B2, the “Peptide-ratio 17-22/2-7” value rises from 0.07 to 0.41.

First: B3
Second: B4
The “Peptide-ratio 17-22/2-7” value of the first is lower: 0.18 for the first, 0.19 for the second.

First: B5
Second: B6
The “Peptide-ratio 17-22/2-7” value of the first is higher: 0.13 for the first, 0.11 for the second.

Compared with B7, B8 is higher in “Peptide-ratio 17-22/2-7” value: 0.04 for the first, 0.77 for the second.

Going from B9 to B10, the “Peptide-ratio 17-22/2-7” value falls from 0.6 to 0.16.

Biological target: T4, BSA-conjugated Aβ heptapeptide AEFRHDC
Test: ELISA

Compared with B1, B2 is lower in “OD ratio 2-7/BSA” value: 27 for the first, 22 for the second.

First: B3
Second: B4
The “OD ratio 2-7/BSA” value of the first is lower: 28 for the first, 31 for the second.

Compared with B5, B6 is lower in “OD ratio 2-7/BSA” value: 23 for the first, 19 for the second.

Going from B7 to B8, the “OD ratio 2-7/BSA” value rises from 25 to 29.

Compared with B9, B10 is higher in “OD ratio 2-7/BSA” value: 26 for the first, 38 for the second.

biological target: T5, Aβ (1-42) peptide (human); test: SPR, immobilized fibers;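 also: biacore SPR using in vitro grown Aβ1-40 or Aβ1-42 fibrils immobilized on the chip with Fab analytes, KD from koff/kon fits or equilibrium isotherms based on total Fab concentration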
T5 construct: also called Aβ1-42 fibers; Aβ4

First: B1
Second: B2
The Kd of the first is 1.7-fold higher: 14 nM for the first, 8.4 nM for the second. The second binds more tightly here.

First: B3
Second: B4
The Kd of the first is 14-fold higher: 36 nM for the first, 2.6 nM for the second.

Compared with B5, B6 is 2.3-fold higher in Kd: 23.1 nM for the first, 54 nM for the second. The first binds more tightly here.

B7 and B8 are within 1.5-fold of each other in Kd: 11.8 nM for the first, 9.2 nM for the second.

Going from B9 to B10, the Kd rises from 3.7 nM to 60 nM (16-fold). The first binds more tightly here.

biological target: T6, human Aβ (1-40) peptide (human); test: SPR, immobilized fibers;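 also: biacore SPR using in vitro grown Aβ1-40 or Aβ1-42 fibrils immobilized on the chip with Fab analytes, KD from koff/kon fits or equilibrium isotherms based on total Fab concentration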
T6 construct: also called Aβ1-40 fibers

First: B1
Second: B2
The Kd of the first is 2-fold higher: 13.5 nM for the first, 6.7 nM for the second.

Going from B3 to B4, the Kd falls from 26.5 nM to 5.3 nM (5-fold).

B5 and B6 are within 1.5-fold of each other in Kd: 18.9 nM for the first, 19.8 nM for the second.

Compared with B7, B8 is 2.6-fold lower in Kd: 36 nM for the first, 13.6 nM for the second. The second binds more tightly here.

Compared with B9, B10 is 5.8-fold higher in Kd: 4.8 nM for the first, 28 nM for the second. The first binds more tightly here.
